# B1: human vascular endothelial growth factor (VEGF) (ligand, UniProt P15692 1-395, looked up)
# chain: APMAEGGGQNHHEVVKFMDVYQRSYCHPIETLVDIFQEYPDEIEYIFKPSCVPLMRCGGCCNDEGLECVPTEESNITMQIMRIKPHQGQHIGEMSFLQHNKCECRPKKDRARQENPCGPCSERRKHLFVQDPQTCKCSCKNTDSRCKARQLELNERTCRCDKPRR
# notes: also called hVEGF; human VEGF; source: commercially available antigen
# Target: T1, 5FV2 soluble VH domain targeting human VEGF (human)
# T1 construct: also called anti-hVEGF VH domain; phage-derived VH domain 5FV2
# Experiment: SPR
# Settings: both partners purified
# T1 sequence (heavy, as listed by the source): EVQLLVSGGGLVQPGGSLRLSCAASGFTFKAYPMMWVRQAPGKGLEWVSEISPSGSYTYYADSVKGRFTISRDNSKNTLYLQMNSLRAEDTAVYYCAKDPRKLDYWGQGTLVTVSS
binder,measurement,value
B1,Kd,3 nM
same,kon,730000 M⁻¹ s⁻¹

# From publication PMC7709125, “Bringing the Heavy Chain to Light: Creating a Symmetric, Bivalent IgG-Like Bispecific” (Antibodies, 2020)
